Test results from patent US20100015650.

B1: ZAP70 (protein)
chain: MPDPAAHLPFFYGSISRAEAEEHLKLAGMADGLFLLRQCLRSLGGYVLSLVHDVRFHHFPIERQLNGTYAIAGGKAHCGPAELCEFYSRDPDGLPCNLRKPCNRPSGLEPQPGVFDCLRDAMVRDYVRQTWKLEGEALEQAIISQAPQVEKLIATTAHERMPWYHSSLTREEAERKLYSGAQTDGKFLLRPRKEQGTYALSLIYGKTVYHYLISQDKAGKYCIPEGTKFDTLWQLVEYLKLKADGLIYCLKEACPNSSASNASGAAAPTLPAHPSTLTHPQRRIDTLNSDGYTPEPARITSPDKPRPMPMDTSVYESPYSDPEELKDKKLFLKRDNLLIADIELGCGNFGSVRQGVYRMRKKQIDVAIKVLKQGTEKADTEEMMREAQIMHQLDNPYIVRLIGVCQAEALMLVMEMAGGGPLHKFLVGKREEIPVSNVAELLHQVSMGMKYLEEKNFVHRDLAARNVLLVNRHYAKISDFGLSKALGADDSYYTARSAGKWPLKWYAPECINFRKFSSRSDVWSYGVTMWEALSYGQKPYKKMKGPEVMAFIEQGKRMECPPECPPELYALMSDCWIYKWEDRPDFLTVEQRMRACYYSLASKVEGPPGSTQKAEAACA
B2: DDR1 (protein)
chain: RRLLSKAERRVLEEELTVHLSVPGDTILINNRPGPREPPPYQEPRPRGNPPHSAPCVPNGSALLLSNPAYRLLLATYARPPRGPGPPTPAWAKPTNTQAYSGDYMEPEKPGAPLLPPPPQNSVPHYAEADIVTLQGVTGGNTYAVPALPPGAVGDGPPRVDFPRSRLRFKEKLGEGQFGEVHLCEVDSPQDLVSLDFPLNVRKGHPLLVAVKILRPDATKNARNDFLKEVKIMSRLKDPNIIRLLGVCVQDDPLCMITDYMENGDLNQFLSAHQLEDKAAEGAPGDGQAAQGPTISYPMLLHVAAQIASGMRYLATLNFVHRDLATRNCLVGENFTIKIADFGMSRNLYAGDYYRVQGRAVLPIRWMAWECILMGKFTTASDVWAFGVTLWEVLMLCRAQPFGQLTDEQVIENAGEFFRDQGRQVYLSRPPACPQGLYELMLRCWSRESEQRPPFSQLHRFLAEDALNTV
B3: TXK (protein)
chain: MILSSYNTIQSVFCCCCCCSVQKRQMRTQISLSTDEELPEKYTQRRRPWLSQLSNKKQSNTGRVQPSKRKPLPPLPPSEVAEEKIQVKALYDFLPREPCNLALRRAEEYLILEKYNPHWWKARDRLGNEGLIPSNYVTENKITNLEIYEWYHRNITRNQAEHLLRQESKEGAFIVRDSRHLGSYTISVFMGARRSTEAAIKHYQIKKNDSGQWYVAERHAFQSIPELIWYHQHNAAGLMTRLRYPVGLMGSCLPATAGFSYEKWEIDPSELAFIKEIGSGQFGVVHLGEWRSHIQVAIKAINEGSMSEEDFIEEAKVMMKLSHSKLVQLYGVCIQRKPLYIVTEFMENGCLLNYLRENKGKLRKEMLLSVCQDICEGMEYLERNGYIHRDLAARNCLVSSTCIVKISDFGMTRYVLDDEYVSSFGAKFPIKWSPPEVFLFNKYSSKSDVWSFGVLMWEVFTEGKMPFENKSNLQVVEAISEGFRLYRPHLAPMSIYEVMYSCWHEKPEGRPTFAELLRAVTEIAETW
B4: TYK2 (protein)
chain: PHNLADVLTVNPDSPASDPTVFHKRYLKKIRDLGEGHFGKVSLYCYDPTNDGTGEMVAVKALKADCGPQHRSGWKQEIDILRTLYHEHIIKYKGCCEDQGEKSLQLVMEYVPLGSLRDYLPRHSIGLAQLLLFAQQICEGMAYLHAQHYIHRDLAARNVLLDNDRLVKIGDFGLAKAVPEGHEYYRVREDGDSPVFWYAPECLKEYKFYYASDVWSFGVTLYELLTHCDSSQSPPTKFLELIGIAQGQMTVLRLTELLERGERLPRPDKCPCEVYHLMKNCWETEASFRPTFENLIPILKTVHEKYQGQAPSVFSVC
B5: TNK1 (protein)
chain: MLPEAGSLWLLKLLRDIQLAQFYWPILEELNVTRPEHFDFVKPEDLDGIGMGRPAQRRLSEALKRLRSGPKSKNWVYKILGGFAPEHKEPTLPSDSPRHLPEPEGGLKCLIPEGAVCRGELLGSGCFGVVHRGLWTLPSGKSVPVAVKSLRVGPEGPMGTELGDFLREVSVMMNLEHPHVLRLHGLVLGQPLQMVMELAPLGSLHARLTAPAPTPPLLVALLCLFLRQLAGAMAYLGARGLVHRDLATRNLLLASPRTIKVADFGLVRPLGGARGRYVMGGPRPIPYAWCAPESLRHGAFSSASDVWMFGVTLWEMFSGGEEPWAGVPPYLILQRLEDRARLPRPPLCSRALYSLALRCWAPHPADRPSFSHLEGLLQEAGPSEACCVRDVTEPGALRMETGDPITVIEGSSSFHSPDSTIWKGQNGRTFKVGSFPASAVTLADAGGLPATRPVHRGTPARGDQHPGSIDGDRKKANLWDAPPARGQRRNMPLERMKGISRSLESVLSLGPRPTGGGSSPPEIRQARAVPQGPPGLPPRPPLSSSSPQPSQPSRERLPWPKRKPPHNHPMGMPGARKAAALSGGLLSDPELQRKIMEVELSVHGVTHQECQTALGATGGDVVSAIRNLKVDQLFHLSSRSRADCWRILEHYQWDLSAASRYVLARP
B6: DDR2 (protein)
chain: RQFWQKMLEKASRRMLDDEMTVSLSLPSDSSMFNNNRSSSPSEQGSNSTYDRIFPLRPDYQEPSRLIRKLPEFAPGEEESGCSGVVKPVQPSGPEGVPHYAEADIVNLQGVTGGNTYSVPAVTMDLLSGKDVAVEEFPRKLLTFKEKLGEGQFGEVHLCEVEGMEKFKDKDFALDVSANQPVLVAVKMLRADANKNARNDFLKEIKIMSRLKDPNIIHLLAVCITDDPLCMITEYMENGDLNQFLSRHEPPNSSSSDVRTVSYTNLKFMATQIASGMKYLSSLNFVHRDLATRNCLVGKNYTIKIADFGMSRNLYSGDYYRIQGRAVLPIRWMSWESILLGKFTTASDVWAFGVTLWETFTFCQEQPYSQLSDEQVIENTGEFFRDQGRQTYLPQPAICPDSVYKLMLSCWRRDTKNRPSFQEIHLLLLQQGDE
B7: EphA2 (protein)
chain: HRRRKNQRARQSPEDVYFSKSEQLKPLKTYVDPHTYEDPNQAVLKFTTEIHPSCVTRQKVIGAGEFGEVYKGMLKTSSGKKEVPVAIKTLKAGYTEKQRVDFLGEAGIMGQFSHHNIIRLEGVISKYKPMMIITEYMENGALDKFLREKDGEFSVLQLVGMLRGIAAGMKYLANMNYVHRDLAARNILVNSNLVCKVSDFGLSRVLEDDPEATYTTSGGKIPIRWTAPEAISYRKFTSASDVWSFGIVMWEVMTYGERPYWELSNHEVMKAINDGFRLPTPMDCPSAIYQLMMQCWQQERARRPKFADIVSILDKLIRAPDSLKTLADFDPRVSIRLPSTSGSEGVPFRTVSEWLESIKMQQYTEHFMAAGYTAIEKVVQMTNDDIKRIGVRLPGHQKRIAYSLLGLKDQVNTVGIPI
B8: EphA1 (protein)
chain: RSRRAQRQRQQRQRDRATDVDREDKLWLKPYVDLQAYEDPAQGALDFTRELDPAWLMVDTVIGEGEFGEVYRGTLRLPSQDCKTVAIKTLKDTSPGGQWWNFLREATIMGQFSHPHILHLEGVVTKRKPIMIITEFMENGALDAFLREREDQLVPGQLVAMLQGIASGMNYLSNHNYVHRDLAARNILVNQNLCCKVSDFGLTRLLDDFDGTYETQGGKIPIRWTAPEAIAHRIFTTASDVWSFGIVMWEVLSFGDKPYGEMSNQEVMKSIEDGYRLPPPVDCPAPLYELMKNCWAYDRARRPHFQKLQAHLEQLLANPHSLRTIANFDPRMTLRLPSLSGSDGIPYRTVSEWLESIRMKRYILHFHSAGLDTMECVLELTAEDLTQMGITLPGHQKRILCSIQGFKD
B9: EphA3 (protein)
chain: RFCGYKSKHGADEKRLHFGNGHLKLPGLRTYVDPHTYEDPTQAVHEFAKELDATNISIDKVVGAGEFGEVCSGRLKLPSKKEISVAIKTLKVGYTEKQRRDFLGEASIMGQFDHPNIIRLEGVVTKSKPVMIVTEYMENGSLDSFLRKHDAQFTVIQLVGMLRGIASGMKYLSDMGYVHRDLAARNILINSNLVCKVSDFGLSRVLEDDPEAAYTTRGGKIPIRWTSPEAIAYRKFTSASDVWSYGIVLWEVMSYGERPYWEMSNQDVIKAVDEGYRLPPPMDCPAALYQLMLDCWQKDRNNRPKFEQIVSILDKLIRNPGSLKIITSAAARPSNLLLDQSNVDITTFRTTGDWLNGVWTAHCKEIFTGVEYSSCDTIAKISTDDMKKVGVTVVGPQKKIISSIKALETQSKNGPVPV
B10: ACK (protein)
chain: GEGPLQSLTCLIGEKDLRLLEKLGDGSFGVVRRGEWDAPSGKTVSVAVKCLKPDVLSQPEAMDDFIREVNAMHSLDHRNLIRLYGVVLTPPMKMVTELAPLGSLLDRLRKHQGHFLLGTLSRYAVQVAEGMGYLESKRFIHRDLAARNLLLATRDLVKIGDFGLMRALPQNDDHYVMQEHRKVPFAWCAPESLKTRTFSHASDTWMFGVTLWEMFTYGQEPWIGLNGSQILHKIDKEGERLPRPEDCPQDIYNVMVQCWAHKPEDRPTFVALRDFLLEAQPTDMRALQDFEEPDKLHIQMNDVITVIEGRAENYWWRGQNTRTLCVGPFPRNVVTSVAGLSAQDISQPLQNSFIHTGHGDSDPRHCW
B11: ALK (protein)
chain: VYRRKHQELQAMQMELQSPEYKLSKLRTSTIMTDYNPNYCFAGKTSSISDLKEVPRKNITLIRGLGHGAFGEVYEGQVSGMPNDPSPLQVAVKTLPEVCSEQDELDFLMEALIISKFNHQNIVRCIGVSLQSLPRFILLELMAGGDLKSFLRETRPRPSQPSSLAMLDLLHVARDIACGCQYLEENHFIHRDIAARNCLLTCPGPGRVAKIGDFGMARDIYRASYYRKGGCAMLPVKWMPPEAFMEGIFTSKTDTWSFGVLLWEIFSLGYMPYPSKSNQEVLEFVTSGGRMDPPKNCPGPVYRIMTQCWQHQPEDRPNFAIILERIEYCTQDPDVINTALPIEYGPLVEEEEKVPVRPKDPEGVPPLLVSQQAKREEERSPAAPPPLPTTSSGKAAKKPTAAEISVRVPRGPAVEGGHVNMAFSQSNPPSELHKVHGSRNKPTSLWNPTYGSWFTEKPTKKNNPIAKKEPHDRGNLGLEGSCTVPPNVATGRLPGASLLLEPSSLTANMKEVPLFRLRHFPCGNVNYGYQQQGLPLEAATAPGAGHYEDTILKSKNSMNQPGP
B12: AXL (protein)
chain: HRRKKETRYGEVFEPTVERGELVVRYRVRKSYSRRTTEATLNSLGISEELKEKLRDVMVDRHKVALGKTLGEGEFGAVMEGQLNQDDSILKVAVKTMKIAICTRSELEDFLSEAVCMKEFDHPNVMRLIGVCFQGSERESFPAPVVILPFMKHGDLHSFLLYSRLGDQPVYLPTQMLVKFMADIASGMEYLSTKRFIHRDLAARNCMLNENMSVCVADFGLSKKIYNGDYYRQGRIAKMPVKWIAIESLADRVYTSKSDVWSFGVTMWEIATRGQTPYPGVENSEIYDYLRQGNRLKQPADCLDGLYALMSRCWELNPQDRPSFTELREDLENTLKALPPAQEPDEILYVNMDEGGGYPEPPGAAGGADPPTQPDPKDSCSCLTAAEVHPAGRYVLCPSTTPSPAQPADRGSPAAPGQEDGA

Target: T1, BRB1 tyrosine kinase substrate peptide
T1 chain: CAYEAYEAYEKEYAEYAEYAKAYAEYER

Row | Protein | Signal to Noise ratio with BRB1 Peptide (TR-FRET kinase assay; kinase 4 nM) | Signal to Noise ratio with BRB1 Peptide (TR-FRET kinase assay; kinase 0.5 nM) | also measured
1 | B1 | 7.6 | – | –
2 | B2 | – | 1 | –
3 | B3 | – | – | Signal to Noise Ratio with BRB1 Peptide (TR-FRET kinase assay; kinase 3 nM): 5.9
4 | B4 | 7.3 | – | –
5 | B5 | – | – | Signal to Noise Ratio with BRB1 Peptide (TR-FRET kinase assay; kinase 1 nM): 6.8
6 | B6 | – | 1 | –
7 | B7 | – | – | Signal to Noise ratio with BRB1 Peptide (TR-FRET kinase assay; kinase 0.25 nM): 26.9
8 | B8 | – | 10.8 | –
9 | B9 | – | 22.4 | –
10 | B10 | – | – | Signal to Noise Ratio with BRB1 Peptide (TR-FRET kinase assay; kinase 20 nM): 17.3
11 | B11 | 8.8 | – | –
12 | B12 | 1.8 | – | –
